Patent publication US20160108110A1 (Novartis, published 2016)
Where a chain is given by its changes, count along the chain named. Blank lines part the entries; values can stand above or below the binder they belong to.

Legend:
[1] = molecular target: T1, Human ANGPTL4(26-406)-FLAG-His6-Avi (human, UniProt Q9BY76 24-406, biotin on the C-terminal Avi tag in the biotinylated preparations (immobilised form in SET, ELISA and Octet)); assay: SET assay
T1 construct: also called full-length human ANGPTL4; hANGPTL4
T1 sequence: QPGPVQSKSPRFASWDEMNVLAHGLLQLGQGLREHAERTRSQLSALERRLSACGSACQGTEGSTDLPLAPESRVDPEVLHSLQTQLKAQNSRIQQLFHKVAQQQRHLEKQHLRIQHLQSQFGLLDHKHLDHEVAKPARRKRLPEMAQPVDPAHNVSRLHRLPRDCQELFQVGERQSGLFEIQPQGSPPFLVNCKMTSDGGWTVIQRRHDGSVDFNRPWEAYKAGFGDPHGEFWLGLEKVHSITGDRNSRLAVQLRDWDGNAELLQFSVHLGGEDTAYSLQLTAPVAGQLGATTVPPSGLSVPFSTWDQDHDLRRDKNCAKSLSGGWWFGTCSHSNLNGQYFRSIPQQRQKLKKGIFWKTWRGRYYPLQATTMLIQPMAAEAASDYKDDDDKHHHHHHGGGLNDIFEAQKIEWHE
Experimental: (§1) SET assays were performed as follows. In a 96-well polypropylene plate, a constant concentration of ANGPTL4 antibody was mixed with different concentrations of non-biotinylated human, cyno, mouse, or rat full-length ANPGLT4 protein, or human ANGPTL4 N-terminal domain protein (5-fold serial dilution) and incubated at 22° C. for 14 hours with constant shaking (300 rpm). On a pre-blocked 384-well streptavidin-coated Meso Scale Discovery (MSD) plate biotinylated ANGPTL4 (full-length human, cyno, mouse, or rat ANGPTL4, or human ANGPTL4 N-terminal domain) protein (1 nM, 15 μL per well) was immobilized and washed thereafter.
(§2) The equilibrium binding reactions (15 μL per well) were applied to the MSD plate with immobilized ANGPTL4 and incubated for 20 min at 22° C. The unbound material was removed by washing the plate 3 times with wash buffer, and the captured antibody was detected by adding Sulfo-tagged goat anti-human IgG (Meso Scale Discovery). After washing MSD read buffer T was added and the plate was developed using a Sector Imager 6000 (Meso Scale Discovery). The data were transferred to Microsoft Excel for analysis and plotted using GraphPad Prism v6. The KD values were determined by fitting the data to the following equation: […]
(§3) where Bₘₐₓ is the signal when no ANGPTL4 protein is present in solution, CAb is the constant concentration of ANGPTL4 antibody in solution, CAg is the concentration of ANGPTL4 in solution, and KD is the equilibrium dissociation constant.

[2] = molecular target: T1, Human ANGPTL4(26-406)-FLAG-His6-Avi; assay: cell-based or functional assay
[3] = molecular target: T1, Human ANGPTL4(26-406)-FLAG-His6-Avi; assay: SET assay (solution equilibrium titration, MSD), IgG
Experimental: as §1, §2, §3

B1: MOR023417 (antibody, V domains shown)
VH: QVQLLESGGGLVQPGGSLRLSCAASGFTFSDYALHWVRQAPGKGLEWVSRITYTGMWTEYADSVKGRFTISRDNSKNTLYLQMNSLRAEDTAVYYCAREHYYSSPMGGVAVDNWGQGTLVTVSS
VL: DIVLTQPPSVSGAPGQRVTISCSGSSSNIGYNTVSWYQQLPGTAPKLLIYSNNIRPSGVPDRFSGSKSGTSASLAITGLQAEDEADYYCSSWDFLIKSLVFGGGTKLTVL
notes: as MOR023415: built on parent Fab MOR021798, limits derived
- Kd [1]: 6 pM

B2: MOR023419 (antibody, V domains shown)
VH: B1 VH with M56V, W57Y, E59G
VL: B1 VL
notes: as for B1
- Kd [1]: 2 pM

B4: MOR023420 (antibody, V domains shown)
VH: B1 VH with T52S, T54M, M56S, W57S, E59Y
VL: B1 VL with S90G, W92F, F94W, L95V, I96T, K97S, S98H, L99V
notes: built on parent Fab MOR021798 with LCDR3 residues 90-99 of the VL replaced (last LCDR3 residue V kept)
- Kd [1]: 1 pM

B5: MOR022761 (antibody, human IgG1, lambda, V domains shown)
VH: QVQLVQSGAEVKKPGSSVKVSCKASGGTFQSYAISWVRQAPGQGLEWMGGIIPLFGFANYAQKFQGRVTITADESTSTAYMELSSLRSEDTAVYYCARESYDPYAFDVWGQGTLVTVSS
VL: SYELTQPLSVSVALGQTARITCSGDNLGKYSASWYQQKPGQAPVLVIHQDNNRPSGIPERFSGSNSGNTATLTISRAQAGDEADYYCASRAHSMHVVFGGGTKLTVLG
notes: human IgG1
- Reversal of human ANGPTL4 inhibition of human LPL EC50 [2]: 11 nM
- Kd [3]: 0.189 nM

B6: MOR022762 (antibody, human IgG1, lambda, V domains shown)
VH: B5 VH with Q30S
VL: B5 VL
notes: human IgG1
- Reversal of human ANGPTL4 inhibition of human LPL EC50 [2]: 4 nM
- Kd [3]: 0.107 nM

B7: MOR022764 (antibody, human IgG1, lambda, V domains shown)
VH: EVQLVQSGAEVKKPGESLKISCKGSGYSFSTYWISWVRQMPGKGLEWMGIIDPSQSDTRYSPSFQGQVTISADKSISTAYLQWSSLKASDTAMYYCARVYGYVYMDVWGQGTLVTVSS
VL: SYELTQPLSVSVALGQTARITCSGDNLGKKYAYWYQQKPGQAPVLVIYDKTKRPSGIPERFSGSNSGNTATLTISRAQAGDEADYYCASYDWYSSSYVFGGGTKLTVLG
notes: human IgG1
- Reversal of human ANGPTL4 inhibition of human LPL EC50 [2]: 3 nM
- Kd [3]: 0.007 nM

B9: MOR022768 (antibody, human IgG1, kappa, V domains shown)
VH: EVQLLESGGGLVQPGGSLRLSCAASGFTFSSYYLHWVRQAPGKGLEWVSYISGSGSSTYYADSVKGRFTISRDNSKNTLYLQMNSLRAEDTAVYYCARERSYAHDHWGQGTLVTVSS
VL: DIQMTQSPSSLSASVGDRVTITCRASQDIYIDLNWYQQKPGKAPKLLIYAASKLQSGVPSRFSGSGSGTDFTLTISSLQPEDFATYYCQQGYFLPQTFGQGTKVEIKR
notes: human IgG1
- Reversal of human ANGPTL4 inhibition of human LPL EC50 [2]: 2 nM
- Kd [3]: 0.004 nM

B10: MOR023403 (antibody, human IgG1, kappa, V domains shown)
VH: EVQLLESGGGLVQPGGSLRLSCAASGFTFSSYWMHWVRQAPGKGLEWVSVINLGSQAKYAGSVKGRFTISRDNSKNTLYLQMNSLRAEDTAVYYCARDSYIYDLHWGFDNWGQGTLVTVSS
VL: B9 VL with Y30S, I31S, D32Y, K53R, G91S, F93T, L94H, Q96Y
notes: as MOR023400: built on MOR022771, limits derived; the printed CDR is one residue shorter than the parent stretch
- Kd [1]: 3 pM

B11: MOR022771 (antibody, human IgG1, kappa, V domains shown)
VH: EVQLLESGGGLVQPGGSLRLSCAASGFTFSSYWMHWVRQAPGKGLEWVSGISYSGSSTNYADSVKGRFTISRDNSKNTLYLQMNSLRAEDTAVYYCARDSYIYDLHWGFDNWGQGTLVTVSS
VL: B9 VL with Y30S, I31S, D32Y, K53R, G91S, F93T, L94H, Q96Y
notes: human IgG1
- Reversal of human ANGPTL4 inhibition of human LPL EC50 [2]: 4 nM
- Kd [3]: 0.029 nM

B14: MOR022767 (antibody, human IgG1, kappa, V domains shown)
VH: B9 VH with S54E
VL: B9 VL
notes: human IgG1
- Reversal of human ANGPTL4 inhibition of human LPL EC50 [2]: 2 nM
- Kd [3]: 0.019 nM

Further lines, results first:

- Kd [1]: 19 pM
B3: MOR023418 (antibody, V domains shown)
VH: B1 VH with M56Q, W57Y, T58K, E59Y
VL: B1 VL
notes: as for B1

- Reversal of human ANGPTL4 inhibition of human LPL EC50 [2]: 3 nM
- Kd [3]: 0.005 nM
B8: MOR022766 (antibody, human IgG1, lambda, V domains shown)
VH: B7 VH with Q55N, S56T
VL: B7 VL
notes: human IgG1

- Reversal of human ANGPTL4 inhibition of human LPL EC50 [2]: 5 nM
- Kd [3]: 0.053 nM
B12: MOR022772 (antibody, human IgG1, kappa, V domains shown)
VH: B11 VH with S54D, G55A
VL: B9 VL with Y30S, I31S, D32Y, K53R, G91S, F93T, L94H, Q96Y
notes: human IgG1

- Reversal of human ANGPTL4 inhibition of human LPL EC50 [2]: 2 nM
- Kd [3]: 0.005 nM
B13: MOR022769 (antibody, human IgG1, kappa, V domains shown)
VH: B9 VH with S54D, G55A
VL: B9 VL
notes: human IgG1

- Kd [1]: 8 pM
B15: MOR023404 (antibody, human IgG1, kappa, V domains shown)
VH: B10 VH with N52P, L53Y, G54M, S55G, Q56T, G61D
VL: B9 VL with Y30S, I31S, D32Y, K53R, G91S, F93T, L94H, Q96Y
notes: as for B10
